Measurements taken from patent US20200079833A1 (AstraZeneca / MedImmune, published 2020).
Starred links: 1 amine or outer side, 2 acyl side, 3 side chain; linkers in the order of their positions; H or OH if unused. Non-standard residues stand in square brackets, D forms with d. Groups on a side chain read outwards from the residue. Primed or numbered codes have the meaning given here. No end group written: not given here. *: point of attachment. γGlu = O=C(O)[C@H](CCC(=O)[*:2])N[*:1]; Palmitoyl = CCCCCCCCCCCCCCCC(=O)*; αMeF = C[C@](N)(Cc1ccccc1)C(=O)O; αMeK = C[C@](N)(CCCCN)C(=O)O; Lauroyl = CCCCCCCCCCCC(=O)*; αMeS = C[C@](N)(CO)C(=O)O; PEG2′ = not defined here; Aib = CC(C)(N)C(=O)O

T1: glucose-dependent insulinotropic peptide (gastric inhibitory polypeptide) receptor (GIPR), primary cAMP assay (human, UniProt P48546 22-466)
T1 sequence (looked up): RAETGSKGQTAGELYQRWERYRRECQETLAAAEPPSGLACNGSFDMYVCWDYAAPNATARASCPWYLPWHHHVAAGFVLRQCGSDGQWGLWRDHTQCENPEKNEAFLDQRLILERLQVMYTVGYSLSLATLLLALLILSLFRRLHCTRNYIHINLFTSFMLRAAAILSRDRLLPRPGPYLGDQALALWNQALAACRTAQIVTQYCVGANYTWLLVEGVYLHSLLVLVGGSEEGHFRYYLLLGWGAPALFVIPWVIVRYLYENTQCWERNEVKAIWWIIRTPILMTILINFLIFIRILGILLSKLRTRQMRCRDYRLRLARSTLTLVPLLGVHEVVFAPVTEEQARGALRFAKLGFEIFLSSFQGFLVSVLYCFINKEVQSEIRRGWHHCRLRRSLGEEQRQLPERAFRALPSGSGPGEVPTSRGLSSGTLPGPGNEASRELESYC

T2: GLP-1R in the INS1e assay (UniProt P32301 22-463, limits assumed)
T2 sequence (looked up): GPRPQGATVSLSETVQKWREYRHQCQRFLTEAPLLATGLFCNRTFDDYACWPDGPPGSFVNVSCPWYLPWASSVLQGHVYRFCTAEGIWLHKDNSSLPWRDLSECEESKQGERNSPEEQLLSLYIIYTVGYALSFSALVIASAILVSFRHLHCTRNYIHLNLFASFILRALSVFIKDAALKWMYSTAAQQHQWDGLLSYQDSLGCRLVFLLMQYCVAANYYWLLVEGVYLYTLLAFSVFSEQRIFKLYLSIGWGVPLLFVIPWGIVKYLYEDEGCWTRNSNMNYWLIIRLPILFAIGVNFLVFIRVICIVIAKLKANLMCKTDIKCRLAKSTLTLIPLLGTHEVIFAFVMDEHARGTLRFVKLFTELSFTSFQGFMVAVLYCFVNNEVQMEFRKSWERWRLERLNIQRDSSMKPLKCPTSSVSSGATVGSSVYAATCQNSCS


Legend:
Experiment in all cases: cell-based or functional assay
[1] = target: GLP-1 receptor (GLP-1R), primary cAMP assay (human, UniProt P43220 24-463)
[2] = target: glucagon receptor (GCGR), primary cAMP assay (human, UniProt P47871 26-477)
[3] = target: T1, glucose-dependent insulinotropic …
[4] = target: T2, GLP-1R in the INS1e assay

Sequence of glucagon receptor (GCGR), primary cAMP assay (P47871 26-477): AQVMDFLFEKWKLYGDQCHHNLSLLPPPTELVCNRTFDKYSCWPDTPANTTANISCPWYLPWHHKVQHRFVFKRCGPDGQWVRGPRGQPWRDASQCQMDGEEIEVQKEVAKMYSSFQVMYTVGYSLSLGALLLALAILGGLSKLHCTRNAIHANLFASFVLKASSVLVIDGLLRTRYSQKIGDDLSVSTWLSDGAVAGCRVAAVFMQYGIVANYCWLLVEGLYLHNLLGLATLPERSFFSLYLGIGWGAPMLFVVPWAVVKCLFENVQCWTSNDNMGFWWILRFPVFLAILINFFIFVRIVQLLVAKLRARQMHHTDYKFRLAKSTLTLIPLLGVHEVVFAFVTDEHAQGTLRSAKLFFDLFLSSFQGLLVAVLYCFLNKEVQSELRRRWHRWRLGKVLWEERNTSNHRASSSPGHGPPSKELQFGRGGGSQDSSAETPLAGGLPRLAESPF

Row | Primary assay EC50 (cAMP) Mean [1] | Primary assay EC50 (cAMP), n1 [1] | Primary assay EC50 (cAMP), n2 [1] | Primary assay EC50 (cAMP), n1 [2] | Primary assay EC50 (cAMP), n2 [2] | Primary assay EC50 (cAMP), n1 [3] | Primary assay EC50 (cAMP), n2 [3] | INS1e assay EC50 (cAMP) Mean [4] | INS1e assay EC50 (cAMP) n1 [4] | INS1e assay EC50 (cAMP) n2 [4] | Binder
1 | 388 pM | 334 pM | 443 pM | 21.9 nM | 21.9 nM | 21.9 nM | 21.9 nM |  |  |  | H[Aib]EGS[αMeF]TSDK([PEG2′-PEG2′-γGlu-Palmitoyl])SSYLEGEAA[αMeK]EFIAK([PEG2′-PEG2′-γGlu-Palmitoyl])VVEGG-NH2 [SEQ ID NO: 260]
2 | 11200 pM | 12300 pM | 10200 pM | 21.6 nM | 21.6 nM | 21.6 nM | 21.6 nM |  |  |  | H[Aib]EGTFTSDVSK([PEG2′-PEG2′-γGlu-Palmitoyl])FLEGEAAEEFIK([PEG2′-PEG2′-γGlu-Palmitoyl])FVVEGG-NH2 [SEQ ID NO: 245]
3 | 92.3 pM | 59.6 pM | 125 pM | 22.3 nM | 22.3 nM | 22.3 nM | 22.3 nM |  |  |  | H[Aib]EGS[αMeF]TSDK([PEG2′-PEG2′-γGlu-Lauroyl])SSYLEGEAA[αMeK]EFIAWK([PEG2′-PEG2′-γGlu-Lauroyl])VEGG-NH2 [SEQ ID NO: 258]

Further lines, the binder ahead of its results:

Row | Binder | Primary assay EC50 (cAMP) Mean [1] | Primary assay EC50 (cAMP), n1 [1] | Primary assay EC50 (cAMP), n2 [1] | Primary assay EC50 (cAMP), n1 [2] | Primary assay EC50 (cAMP), n2 [2] | Primary assay EC50 (cAMP), n1 [3] | Primary assay EC50 (cAMP), n2 [3] | INS1e assay EC50 (cAMP) Mean [4] | INS1e assay EC50 (cAMP) n1 [4] | INS1e assay EC50 (cAMP) n2 [4]
4 | H[Aib]EGS[αMeF]TSDV[αMeS]SYK([PEG2′-PEG2′-γGlu-Palmitoyl])EGEAA[αMeK]EFIAWK([PEG2′-PEG2′-γGlu-Palmitoyl])VEGG-NH2 [SEQ ID NO: 273] | 762 pM | 741 pM | 783 pM | 21.5 nM | 21.5 nM | 21.5 nM | 21.5 nM |  |  | 
5 | H[Aib]EGS[αMeF]TSDV[αMeS]SK([PEG2′-PEG2′-γGlu-Palmitoyl])LEGEAA[αMeK]EFIAK([PEG2′-PEG2′-γGlu-Palmitoyl])VVEGG-NH2 [SEQ ID NO: 266] | 478 pM | 400 pM | 557 pM | 22.2 nM | 22.2 nM | 22.2 nM | 22.2 nM |  |  | 
6 | H[Aib]EGTFTSDVSK([PEG2′-PEG2′-γGlu-Lauroyl])YLEGEAAEEFIK([PEG2′-PEG2′-γGlu-Lauroyl])WVVEGG-NH2 [SEQ ID NO: 236] | 21.7 pM | 16.5 pM | 26.8 pM | 22.2 nM | 22.2 nM | 22.2 nM | 22.2 nM | 12.3 nM | 12 nM | 12.7 nM
7 | H[Aib]EGS[αMeF]TSDV[αMeS]SK([PEG2′-PEG2′-γGlu-Palmitoyl])LEGEAA[αMeK]EFIAWK([PEG2′-PEG2′-γGlu-Palmitoyl])VEGG-NH2 [SEQ ID NO: 267] | 569 pM | 628 pM | 510 pM | 21.7 nM | 21.7 nM | 21.7 nM | 21.7 nM |  |  | 
